First the molecules themselves.
B2: growth differentiation factor 11 (GDF11) (ligand, UniProt O95390 299-407, looked up)
chain: NLGLDCDEHSSESRCCRYPLTVDFEAFGWDWIIAPKRYKANYCSGQCEYMFMQKYPHTHLVQQANPRGSAGPCCTPTKMSPINMLYFNDKQQIIYGKIPGMVVDRCGCS
B3: ActRIIb (SEQ ID NO: 74) (receptor)
chain: GRGEAETRECIYYNANWELERTNQSGLERCEGEQDKRLHCYASWRNSSGTIELVKKGCWLDDFNCYDRQECVATEENPQVYFCCCEGNFCNERFTHLPEAGGPEVTYEPPPTAPT
notes: also called Human ActRIIb, extracellular portion; not shown: Carrier and linker
B13: BMP-9 (ligand, UniProt Q9UK05 320-429, looked up)
chain: SAGAGSHCQKTSLRVNFEDIGWDSWIIAPKEYEAYECKGGCFFPLADDVTPTKHAIVQTLVHLKFPTKVGKACCVPTKLSPISVLYKDDMGVPTLKYHYEGMSVAECGCR
notes: also called bone morphogenetic protein 9

Assay [1] deals with T1, Activin A (UniProt P08476 311-426).
T1 sequence (looked up): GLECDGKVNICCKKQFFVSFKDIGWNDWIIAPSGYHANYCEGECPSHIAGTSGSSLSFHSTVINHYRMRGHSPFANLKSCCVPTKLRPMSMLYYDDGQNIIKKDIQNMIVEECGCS
Briefly: SPR (Biacore 3000), receptor captured on chip, ligand in solution. (Surface plasmon resonance follows binding to a sensor surface in real time, without labels.)

In assay [2] the target is B2. The assay is described as above.
The assay “BMP-9” deals with B13. The description is as above.
Assay [3] addresses T2, Activin B (UniProt P09529 293-407).
T2 sequence (looked up): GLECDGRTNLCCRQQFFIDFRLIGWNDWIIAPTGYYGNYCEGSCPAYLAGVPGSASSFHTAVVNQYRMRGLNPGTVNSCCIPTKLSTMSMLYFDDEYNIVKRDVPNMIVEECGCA
Described as above.

The assay “ActRIIb (SEQ ID NO: 74)” concerns the target B3. The assay is described as above.
Assay [4] has as its target T1, Activin A. As to the kind of experiment: SPR (Biacore 3000), receptor captured on chip by anti-mouse antibody, ligand in solution.
Assay [5] concerns the target B2. The assay is described as above.
The target of assay [6] is T2, Activin B. The description is as above.

B1: ActRIIa/bmax3 variant (SEQ ID NO: 72) (receptor)
chain: GAILGRSETQECLFYNANWELERTNQTGVERCEGEKDKRLHCYATWRNISGSIEIVKKGCWLDDFNCYDRTDCVETEENPQVYFCCCEGNMCNEKFSYFPEMEVTQPTSNPVTPK
notes: not shown: Carrier and linker
Turning to B1, the Kd is 0.089 nM with Activin A [1], 0.214 nM in assay [2], 3.3 nM with BMP-9 and 0.043 nM with Activin B [3].

In turn, B2 displayed a Kd with ActRIIb (SEQ ID NO: 74) of 0.115 nM.

Take B3: the figures for the Kd in the assay with Activin A [1] and with Activin B [3] were 0.063 nM and 0.023 nM, respectively.

B4: ActRIIb/a variant (SEQ ID NO: 149) (receptor)
chain: GRGEAETRECIFYNANWEKDRTNQSGLEPCYGDQDKRRHCFASWKNSSGTIELVKQGCWLDDINCYDRQECVAKKDSPEVYFCCCEGNFCNERFTHLPEAGGPEVTYEPPPTAPT
notes: Engineered extracellular ActRIIb variant; also called extracellular ActRIIb variant; not shown: Carrier and linker
Take B4: the binding result (with Activin A [4]; in assay [5]; with Activin B [6]) was “no binding” each time.

B5: ActRIIa/bΔ9 variant (SEQ ID NO: 58) (receptor)
chain: GAILGRSETQECLFYNANWELDRTNQTGVERCEGEKDKRLHCYATWRNISGSIEIVKKGCWLDDFNCYDRTDCVETKENPQVYFCCCEGNMCNEKFSYFPEMEVTQPTS
notes: Engineered extracellular ActRIIa variant; not shown: Fusion partner and its linker
Consider B5, for which the Kd with Activin A [1] amounted to 0.213 nM; in assay [2] it was 0.115 nM; with BMP-9, 10 nM; with Activin B [3] it was 0.0123 nM.

B6: ActRIIa/bΔ9m2 variant (SEQ ID NO: 38) (receptor)
chain: GAILGRSETQECLFYNANWELDRTNQTGVERCEGEKDKRLHCYATWRNISGSIEIVKKGCWLDDINCYDRTDCVETKENPQVYFCCCEGNMCNEKFSYFPEMEVTQPTS
notes: as for B5
B6: the Kd with Activin A [1] is 0.17 nM; in assay [2], 0.222 nM; in the assay with BMP-9 it was 13 to 18 nM; with Activin B [3] it was 0.104 nM.

B7: ActRIIa/bΔ9 min variant (SEQ ID NO: 6) (receptor)
chain: GAILGRSETQECLFYNANWELDRTNQTGVEPCEGEKDKRLHCFATWKNISGSIEIVKKGCWLDDINCYDRTDCVETKENPQVYFCCCEGNMCNEKFSYFPEMEVTQPTS
notes: as for B5
As for B7, the equilibrium dissociation constant (Kd) turned out to be 0.31 nM with Activin A [1], 0.114 nM in assay [2], 17 nM with BMP-9 and 0.088 nM in the assay with Activin B [3].

B8: ActRIIa/bΔ9m3 variant (SEQ ID NO: 41) (receptor)
chain: GAILGRSETQECLFYNANWELDRTNQTGVERCEGEKDKRLHCFATWRNISGSIEIVKKGCWLDDFNCYDRTDCVETKENPQVYFCCCEGNMCNEKFSYFPEMEVTQPTS
notes: as for B5
As to B8, the dissociation constant Kd in the assay with Activin A [1] worked out at 0.071 nM; in assay [2], 0.117 nM; with BMP-9 it was 1.2 nM; with Activin B [3] it was 0.0725 nM.

B9: ActRIIa/b+ variant (SEQ ID NO: 150) (receptor)
chain: GAILGRSETQECLFYNANWELERTNQTGVERCEGEKDKRLHCYATWRNISGSIEIVAKGCWLDDFNCYDRTDCVETEENPQVYFCCCEGNMCNEKFSYFPEMEVTQPTS
notes: not shown: Fusion partner and its linker
For the molecule B9, the Kd with Activin A [1] was found to be 0.242 nM; with BMP-9, 26 nM; with Activin B [3] it was 0.282 nM.

B10: ActRIIa/bΔ9m4 variant (SEQ ID NO: 44) (receptor)
chain: GAILGRSETQECLFYNANWELDRTNQTGVEPCEGEKDKRLHCYATWRNISGSIEIVKKGCWLDDFNCYDRTDCVETKENPQVYFCCCEGNMCNEKFSYFPEMEVTQPTS
notes: Engineered extracellular ActRIIa variant; not shown: Carrier and linker
For the molecule B10, the Kd is 0.375 nM with Activin A [1], 0.394 nM in assay [2], 14 to 20 nM in the assay with BMP-9 and 0.254 nM in the assay with Activin B [3].

B11: ActRIIa/b variant (SEQ ID NO: 69) (receptor)
chain: GAILGRSETQECLFYNANWELERTNQTGVERCEGEKDKRLHCYATWRNISGSIEIVKKGCWLDDFNCYDRTDCVETEENPQVYFCCCEGNMCNEKFSYFPEMEVTQPTS
notes: as for B10
As for B11, the equilibrium dissociation constant (Kd) in the assay with Activin A [1] was determined as 0.542 nM; in assay [2] it was 0.186 nM; with BMP-9, 4 nM; with Activin B [3], 0.103 nM.

B12: ActRIIa/bmax1 variant (SEQ ID NO: 70) (receptor)
chain: GAILGRSETQECLYYNANWELERTNQTGVERCEGEQDKRLHCYATWRNISGSIEIVKKGCWLDDFNCYDRTDCVETEENPQVYFCCCEGNMCNEKFSYFPEMEVTQPTS
notes: as for B10
B12: the Kd worked out at 0.232 nM in the assay with Activin A [1], 0.236 nM in assay [2], 5.6 nM with BMP-9 and 0.097 nM with Activin B [3].

For the molecule B13, in the assay with ActRIIb (SEQ ID NO: 74), the Kd worked out at 0.278 nM.

B14: ActRIIa/bmax2 variant (SEQ ID NO: 71) (receptor)
chain: GAILGRSETQECLFYNANWELERTNQTGVERCEGEKDKRLHCYATWRNISGSIEIVKKGCWLDDFNCYDRTDCVETEENPQVYFCCCEGNMCNEKFSYFPEMEVTQPTSNP
notes: not shown: Carrier and linker
In the case of B14, the Kd with Activin A [1] was determined as 0.135 nM; in assay [2], 0.113 nM; with BMP-9 it was 5 nM; with Activin B [3], 0.039 nM.

The term Kd denotes the equilibrium constant for the complex coming apart. The low end stands for a tighter complex, the high end for a looser complex.

Source of the values: patent US20190282663A1 (KEROS THERAPEUTICS, published 2019).
